According to article PMC9482650, “Quantitative fragmentomics allow affinity mapping of interactomes” (Nature Communications, 2022):

The binders below were run against T1, APBA2_1, Q99767 (assay: holdup assay). Details: plain residues with an end cap or a label only (N-terminal biotin on a linker: ado-ado).
T1 sequence (Q99767 563-664, limits assumed, looked up): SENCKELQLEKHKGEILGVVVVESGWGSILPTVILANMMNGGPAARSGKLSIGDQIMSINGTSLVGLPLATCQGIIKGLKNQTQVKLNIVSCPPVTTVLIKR
Parameters: key: below the threshold = too weak to quantify, mostly under pKd 3.1 to 4

For LAHVKHKEQI [AQP3, Q92482], which pKd is on record?
Its pKd is “below the threshold”.

With APIAGFSSFV [SDK2, Q58EX2] as the binder, how does the pKd read?
The pKd was “below the threshold”.

Each binder was assayed against T2, APBA3_1, O96018 (assay: holdup assay). Details: plain residues with an end cap or a label only (N-terminal biotin on a linker: ado-ado).
T2 sequence (O96018 389-490, limits assumed, looked up): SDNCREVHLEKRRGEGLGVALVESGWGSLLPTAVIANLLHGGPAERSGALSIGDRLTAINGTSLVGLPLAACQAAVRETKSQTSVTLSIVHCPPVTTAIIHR
Parameters: key: below the threshold = too weak to quantify, mostly under pKd 3.1 to 4

Which pKd does the source give for LAHVKHKEQI [AQP3, Q92482] here?
The pKd was “below the threshold”.

With APIAGFSSFV [SDK2, Q58EX2] as the binder, how does the pKd read?
The pKd was “below the threshold”.

The binders below were run against T3, ARHGEF11, O15085 (assay: holdup assay). Details: plain residues with an end cap or a label only (N-terminal biotin on a linker: ado-ado).
T3 sequence (O15085 42-136, limits assumed, looked up): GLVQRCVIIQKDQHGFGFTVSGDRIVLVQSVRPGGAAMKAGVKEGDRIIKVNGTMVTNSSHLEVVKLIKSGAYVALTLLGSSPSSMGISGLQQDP
Parameters: key: below the threshold = too weak to quantify, mostly under pKd 3.1 to 4

Which pKd does the source give for LAHVKHKEQI [AQP3, Q92482] here?
Its pKd is “below the threshold”.

APIAGFSSFV [SDK2, Q58EX2] was tested. Which pKd did it give?
The pKd was 3.72.

What follows are binders tested against T4, CARD11, Q9BXL7 (assay: holdup assay). Details: plain residues with an end cap or a label only (N-terminal biotin on a linker: ado-ado).
T4 sequence (Q9BXL7 662-765, limits assumed, looked up): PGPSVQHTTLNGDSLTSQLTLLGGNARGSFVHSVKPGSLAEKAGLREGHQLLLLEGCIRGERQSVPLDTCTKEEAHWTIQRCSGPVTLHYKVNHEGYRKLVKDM
Parameters: key: below the threshold = too weak to quantify, mostly under pKd 3.1 to 4

LAHVKHKEQI [AQP3, Q92482] was tested. Which pKd did it give?
Its pKd is “below the threshold”.

For APIAGFSSFV [SDK2, Q58EX2], which pKd is on record?
Its pKd is “below the threshold”.

These binders were tested against CASK, O14936 (assay: holdup assay). Details: plain residues with an end cap or a label only (N-terminal biotin on a linker: ado-ado).
Sequence of CASK, O14936 (O14936 487-570): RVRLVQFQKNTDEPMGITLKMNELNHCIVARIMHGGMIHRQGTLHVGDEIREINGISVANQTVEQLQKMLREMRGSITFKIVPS
Parameters: key: below the threshold = too weak to quantify, mostly under pKd 3.1 to 4

How did the pKd turn out when LAHVKHKEQI [AQP3, Q92482] was run?
Its pKd is “below the threshold”.

APIAGFSSFV [SDK2, Q58EX2] was tested. Which pKd did it give?
The pKd was “below the threshold”.

What follows are binders tested against T5, FRMPD1, Q5SYB0 (assay: holdup assay). Details: plain residues with an end cap or a label only (N-terminal biotin on a linker: ado-ado).
T5 sequence (Q5SYB0 52-145, limits assumed, looked up): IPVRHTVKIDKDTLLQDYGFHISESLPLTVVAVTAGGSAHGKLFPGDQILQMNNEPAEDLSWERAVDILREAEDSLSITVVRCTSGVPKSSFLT
Parameters: key: below the threshold = too weak to quantify, mostly under pKd 3.1 to 4

Which pKd does the source give for LAHVKHKEQI [AQP3, Q92482] here?
The pKd was “below the threshold”.

APIAGFSSFV [SDK2, Q58EX2] was tested. Which pKd did it give?
The pKd was “below the threshold”.

Each binder was assayed against FRMPD2_1, Q68DX3 (assay: holdup assay). Details: plain residues with an end cap or a label only (N-terminal biotin on a linker: ado-ado).
Sequence of FRMPD2_1, Q68DX3 (Q68DX3 770-861): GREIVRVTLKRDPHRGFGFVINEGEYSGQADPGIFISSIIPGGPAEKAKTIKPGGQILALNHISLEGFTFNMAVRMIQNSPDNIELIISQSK
Parameters: key: below the threshold = too weak to quantify, mostly under pKd 3.1 to 4

With LAHVKHKEQI [AQP3, Q92482] as the binder, how does the pKd read?
Its pKd is “below the threshold”.

APIAGFSSFV [SDK2, Q58EX2] was tested. Which pKd did it give?
The pKd was “below the threshold”.

Each binder was assayed against GRIP2_4, Q9C0E4 (assay: holdup assay). Details: plain residues with an end cap or a label only (N-terminal biotin on a linker: ado-ado).
Sequence of GRIP2_4, Q9C0E4 (Q9C0E4 446-548): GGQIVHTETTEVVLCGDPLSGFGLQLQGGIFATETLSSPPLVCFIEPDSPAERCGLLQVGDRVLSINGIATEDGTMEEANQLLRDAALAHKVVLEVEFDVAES
Parameters: key: below the threshold = too weak to quantify, mostly under pKd 3.1 to 4

For LAHVKHKEQI [AQP3, Q92482], which pKd is on record?
Its pKd is “below the threshold”.

How did the pKd turn out when APIAGFSSFV [SDK2, Q58EX2] was run?
Its pKd is “below the threshold”.

Each binder was assayed against GRIP2_7, Q9C0E4 (assay: holdup assay). Details: plain residues with an end cap or a label only (N-terminal biotin on a linker: ado-ado).
Sequence of GRIP2_7, Q9C0E4 (Q9C0E4 934-1023): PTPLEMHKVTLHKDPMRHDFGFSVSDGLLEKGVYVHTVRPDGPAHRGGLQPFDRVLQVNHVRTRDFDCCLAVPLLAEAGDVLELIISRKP
Parameters: key: below the threshold = too weak to quantify, mostly under pKd 3.1 to 4

With LAHVKHKEQI [AQP3, Q92482] as the binder, how does the pKd read?
Its pKd is “below the threshold”.

For APIAGFSSFV [SDK2, Q58EX2], which pKd is on record?
The pKd was “below the threshold”.

These binders were tested against T6, HTRA3, P83110 (assay: holdup assay). Details: plain residues with an end cap or a label only (N-terminal biotin on a linker: ado-ado).
T6 sequence (P83110 354-453, limits assumed, looked up): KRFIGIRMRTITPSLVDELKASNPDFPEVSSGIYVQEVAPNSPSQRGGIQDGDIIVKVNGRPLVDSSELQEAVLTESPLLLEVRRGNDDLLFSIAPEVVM
Parameters: key: below the threshold = too weak to quantify, mostly under pKd 3.1 to 4

With LAHVKHKEQI [AQP3, Q92482] as the binder, how does the pKd read?
Its pKd is “below the threshold”.

APIAGFSSFV [SDK2, Q58EX2] was tested. Which pKd did it give?
The pKd was 4.49.

The binders below were run against MAGI1_1, Q96QZ7 (assay: holdup assay). Details: plain residues with an end cap or a label only (N-terminal biotin on a linker: ado-ado).
Sequence of MAGI1_1, Q96QZ7 (Q96QZ7 1-106): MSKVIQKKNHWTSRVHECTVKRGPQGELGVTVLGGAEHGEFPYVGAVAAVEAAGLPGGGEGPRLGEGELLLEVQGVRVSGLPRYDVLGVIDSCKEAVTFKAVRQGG
Parameters: key: below the threshold = too weak to quantify, mostly under pKd 3.1 to 4

For LAHVKHKEQI [AQP3, Q92482], which pKd is on record?
Its pKd is “below the threshold”.

How did the pKd turn out when APIAGFSSFV [SDK2, Q58EX2] was run?
The pKd was “below the threshold”.

Each binder was assayed against MAGI2_6, Q86UL8 (assay: holdup assay). Details: plain residues with an end cap or a label only (N-terminal biotin on a linker: ado-ado).
Sequence of MAGI2_6, Q86UL8 (Q86UL8 1141-1229): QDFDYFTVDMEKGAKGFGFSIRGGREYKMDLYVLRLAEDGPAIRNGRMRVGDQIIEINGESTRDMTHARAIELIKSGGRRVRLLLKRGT
Parameters: key: below the threshold = too weak to quantify, mostly under pKd 3.1 to 4

Which pKd does the source give for LAHVKHKEQI [AQP3, Q92482] here?
The pKd was “below the threshold”.

With APIAGFSSFV [SDK2, Q58EX2] as the binder, how does the pKd read?
Its pKd is 4.13.

What follows are binders tested against T7, MPP6, Q9NZW5 (assay: holdup assay). Details: plain residues with an end cap or a label only (N-terminal biotin on a linker: ado-ado).
T7 sequence (Q9NZW5 125-219, limits assumed, looked up): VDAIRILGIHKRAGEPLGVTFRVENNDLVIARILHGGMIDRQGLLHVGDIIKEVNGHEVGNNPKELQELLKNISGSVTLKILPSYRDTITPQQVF
Parameters: key: below the threshold = too weak to quantify, mostly under pKd 3.1 to 4

LAHVKHKEQI [AQP3, Q92482] was tested. Which pKd did it give?
The pKd was “below the threshold”.

How did the pKd turn out when APIAGFSSFV [SDK2, Q58EX2] was run?
Its pKd is “below the threshold”.

Each binder was assayed against T8, MPP7, Q5T2T1 (assay: holdup assay). Details: plain residues with an end cap or a label only (N-terminal biotin on a linker: ado-ado).
T8 sequence (Q5T2T1 134-230, limits assumed, looked up): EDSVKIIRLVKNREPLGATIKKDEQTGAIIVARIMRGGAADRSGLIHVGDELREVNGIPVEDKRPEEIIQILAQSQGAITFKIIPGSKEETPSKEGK
Parameters: key: below the threshold = too weak to quantify, mostly under pKd 3.1 to 4

LAHVKHKEQI [AQP3, Q92482] was tested. Which pKd did it give?
The pKd was “below the threshold”.

How did the pKd turn out when APIAGFSSFV [SDK2, Q58EX2] was run?
The pKd was “below the threshold”.

Each binder was assayed against T9, NHERF3_4, Q5T2W1 (assay: holdup assay). Details: plain residues with an end cap or a label only (N-terminal biotin on a linker: ado-ado).
T9 sequence (Q5T2W1 373-468, limits assumed, looked up): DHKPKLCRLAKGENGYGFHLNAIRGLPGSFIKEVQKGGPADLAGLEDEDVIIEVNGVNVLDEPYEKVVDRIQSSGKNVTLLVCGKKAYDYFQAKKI
Parameters: key: below the threshold = too weak to quantify, mostly under pKd 3.1 to 4

For LAHVKHKEQI [AQP3, Q92482], which pKd is on record?
Its pKd is “below the threshold”.

APIAGFSSFV [SDK2, Q58EX2] was tested. Which pKd did it give?
The pKd was “below the threshold”.

Each binder was assayed against T10, PDZD7_3, Q9H5P4 (assay: holdup assay). Details: plain residues with an end cap or a label only (N-terminal biotin on a linker: ado-ado).
T10 sequence (Q9H5P4 857-944, limits assumed, looked up): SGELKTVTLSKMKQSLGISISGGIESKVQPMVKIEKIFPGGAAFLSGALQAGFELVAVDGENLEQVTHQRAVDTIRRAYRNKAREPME
Parameters: key: below the threshold = too weak to quantify, mostly under pKd 3.1 to 4

For LAHVKHKEQI [AQP3, Q92482], which pKd is on record?
Its pKd is “below the threshold”.

APIAGFSSFV [SDK2, Q58EX2] was tested. Which pKd did it give?
Its pKd is 4.63.

Each binder was assayed against T11, RHPN1, Q8TCX5 (assay: holdup assay). Details: plain residues with an end cap or a label only (N-terminal biotin on a linker: ado-ado).
T11 sequence (Q8TCX5 508-602, limits assumed, looked up): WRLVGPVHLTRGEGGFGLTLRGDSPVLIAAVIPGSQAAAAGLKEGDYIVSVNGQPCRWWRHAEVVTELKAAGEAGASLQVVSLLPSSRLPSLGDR
Parameters: key: below the threshold = too weak to quantify, mostly under pKd 3.1 to 4

With LAHVKHKEQI [AQP3, Q92482] as the binder, how does the pKd read?
The pKd was “below the threshold”.

With APIAGFSSFV [SDK2, Q58EX2] as the binder, how does the pKd read?
Its pKd is 4.76.

What follows are binders tested against T12, SNTA1, Q13424 (assay: holdup assay). Details: plain residues with an end cap or a label only (N-terminal biotin on a linker: ado-ado).
T12 sequence (Q13424 82-180, limits assumed, looked up): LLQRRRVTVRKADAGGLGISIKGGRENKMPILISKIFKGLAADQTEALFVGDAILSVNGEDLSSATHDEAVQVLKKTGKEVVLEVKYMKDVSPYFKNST
Parameters: key: below the threshold = too weak to quantify, mostly under pKd 3.1 to 4

With LAHVKHKEQI [AQP3, Q92482] as the binder, how does the pKd read?
The pKd was “below the threshold”.

How did the pKd turn out when APIAGFSSFV [SDK2, Q58EX2] was run?
The pKd was 4.09.

The binders below were run against T13, SNTG1, Q9NSN8 (assay: holdup assay). Details: plain residues with an end cap or a label only (N-terminal biotin on a linker: ado-ado).
T13 sequence (Q9NSN8 52-150, limits assumed, looked up): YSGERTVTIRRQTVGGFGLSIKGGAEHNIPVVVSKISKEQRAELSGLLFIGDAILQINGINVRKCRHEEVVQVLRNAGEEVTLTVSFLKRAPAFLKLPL
Parameters: key: below the threshold = too weak to quantify, mostly under pKd 3.1 to 4

How did the pKd turn out when LAHVKHKEQI [AQP3, Q92482] was run?
The pKd was “below the threshold”.

For APIAGFSSFV [SDK2, Q58EX2], which pKd is on record?
Its pKd is 3.83.

The binders below were run against TJP1_2, Q07157 (assay: holdup assay). Details: plain residues with an end cap or a label only (N-terminal biotin on a linker: ado-ado).
Sequence of TJP1_2, Q07157 (Q07157 181-274): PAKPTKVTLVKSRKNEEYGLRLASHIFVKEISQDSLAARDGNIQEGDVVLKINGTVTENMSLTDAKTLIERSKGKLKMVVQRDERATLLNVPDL
Parameters: key: below the threshold = too weak to quantify, mostly under pKd 3.1 to 4

For LAHVKHKEQI [AQP3, Q92482], which pKd is on record?
Its pKd is “below the threshold”.

APIAGFSSFV [SDK2, Q58EX2] was tested. Which pKd did it give?
Its pKd is “below the threshold”.

The binders below were run against T14, TJP3_3, O95049 (assay: holdup assay). Details: plain residues with an end cap or a label only (N-terminal biotin on a linker: ado-ado).
T14 sequence (O95049 375-456, limits assumed, looked up): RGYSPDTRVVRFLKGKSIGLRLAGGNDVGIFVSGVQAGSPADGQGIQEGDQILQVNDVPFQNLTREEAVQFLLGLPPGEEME
Parameters: key: below the threshold = too weak to quantify, mostly under pKd 3.1 to 4

For LAHVKHKEQI [AQP3, Q92482], which pKd is on record?
The pKd was “below the threshold”.

With APIAGFSSFV [SDK2, Q58EX2] as the binder, how does the pKd read?
The pKd was 3.82.

The binders below were run against T15, TX1BP3, O14907 (assay: holdup assay). Details: plain residues with an end cap or a label only (N-terminal biotin on a linker: ado-ado).
T15 sequence (O14907 10-122, limits assumed, looked up): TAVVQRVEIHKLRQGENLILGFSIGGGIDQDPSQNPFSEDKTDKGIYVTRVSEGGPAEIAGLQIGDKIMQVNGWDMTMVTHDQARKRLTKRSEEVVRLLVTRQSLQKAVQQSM
Parameters: key: below the threshold = too weak to quantify, mostly under pKd 3.1 to 4

With LAHVKHKEQI [AQP3, Q92482] as the binder, how does the pKd read?
Its pKd is “below the threshold”.

How did the pKd turn out when APIAGFSSFV [SDK2, Q58EX2] was run?
The pKd was 4.84.
